Experimental data: PMC9482650, “Quantitative fragmentomics allow affinity mapping of interactomes” (Nature Communications, 2022)

Columns and labels:
Experiment in all cases: holdup assay
Set-up in all cases: key: below the threshold = too weak to quantify, mostly under pKd 3.1 to 4
Conditions in all cases: plain residues with an end cap or a label only (N-terminal biotin on a linker: ttds)
PDLIM3, Q53GG5 = biological target: T1, PDLIM3, Q53GG5
T1 sequence (Q53GG5 1-94, limits assumed, looked up): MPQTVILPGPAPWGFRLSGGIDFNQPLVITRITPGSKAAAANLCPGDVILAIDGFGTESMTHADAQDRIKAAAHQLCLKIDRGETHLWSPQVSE

MAGI1_3, Q96QZ7 = biological target: MAGI1_3, Q96QZ7
TJP3_1, O95049 = biological target: T2, TJP3_1, O95049
T2 sequence (O95049 6-103, limits assumed, looked up): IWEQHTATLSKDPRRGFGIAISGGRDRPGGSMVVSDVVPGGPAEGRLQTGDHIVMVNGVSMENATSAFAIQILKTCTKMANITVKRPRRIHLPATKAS

PDZRN3_2, Q9UPQ7 = biological target: T3, PDZRN3_2, Q9UPQ7
T3 sequence (Q9UPQ7 414-513, limits assumed, looked up): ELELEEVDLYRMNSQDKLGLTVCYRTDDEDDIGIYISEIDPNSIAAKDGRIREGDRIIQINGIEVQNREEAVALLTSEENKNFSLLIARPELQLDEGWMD

APBA3_2, O96018 = biological target: T4, APBA3_2, O96018
T4 sequence (O96018 480-570, limits assumed, looked up): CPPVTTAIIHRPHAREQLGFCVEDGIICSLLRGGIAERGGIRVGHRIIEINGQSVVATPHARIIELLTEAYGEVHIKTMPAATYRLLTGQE

MAST3, O60307 = biological target: MAST3, O60307
MAGI3_5, Q5TCQ9 = biological target: MAGI3_5, Q5TCQ9
PDZD4, Q76G19 = biological target: T5, PDZD4, Q76G19
T5 sequence (Q76G19 125-224, limits assumed, looked up): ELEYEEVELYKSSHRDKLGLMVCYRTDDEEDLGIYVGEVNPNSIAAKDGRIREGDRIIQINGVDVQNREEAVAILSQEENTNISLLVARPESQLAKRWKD

PARD6B, Q9BYG5 = biological target: T6, PARD6B, Q9BYG5
T6 sequence (Q9BYG5 152-260, limits assumed, looked up): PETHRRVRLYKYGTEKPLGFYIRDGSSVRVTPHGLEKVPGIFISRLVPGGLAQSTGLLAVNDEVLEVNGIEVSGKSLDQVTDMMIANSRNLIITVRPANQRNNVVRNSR

PTPN4, P29074 = biological target: T7, PTPN4, P29074
T7 sequence (P29074 512-599, limits assumed, looked up): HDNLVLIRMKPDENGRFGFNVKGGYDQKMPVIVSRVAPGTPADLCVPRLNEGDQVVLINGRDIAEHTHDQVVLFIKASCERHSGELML

NHERF1_1, O14745 = biological target: T8, NHERF1_1, O14745
T8 sequence (O14745 9-104, limits assumed, looked up): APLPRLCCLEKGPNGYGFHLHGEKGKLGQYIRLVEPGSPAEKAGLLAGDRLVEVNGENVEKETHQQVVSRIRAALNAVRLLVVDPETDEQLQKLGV

IL16_2, Q14005 = biological target: IL16_2, Q14005
MPP1, Q00013 = biological target: T9, MPP1, Q00013
T9 sequence (Q00013 66-162, limits assumed, looked up): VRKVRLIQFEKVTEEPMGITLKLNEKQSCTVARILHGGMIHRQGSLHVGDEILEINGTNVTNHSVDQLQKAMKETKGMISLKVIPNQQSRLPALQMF

INTU, Q9ULD6 = biological target: T10, INTU, Q9ULD6
T10 sequence (Q9ULD6 180-273, limits assumed, looked up): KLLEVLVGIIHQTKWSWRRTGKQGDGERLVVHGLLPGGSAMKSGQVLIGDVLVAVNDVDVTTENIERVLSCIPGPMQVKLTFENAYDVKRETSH

PTPN13_4, Q12923 = biological target: T11, PTPN13_4, Q12923
T11 sequence (Q12923 1783-1878, limits assumed, looked up): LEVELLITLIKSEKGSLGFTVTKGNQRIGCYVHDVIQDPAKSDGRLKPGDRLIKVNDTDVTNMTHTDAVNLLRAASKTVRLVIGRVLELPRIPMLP

PREX1_1, Q8TCU6 = biological target: PREX1_1, Q8TCU6
SHROOM3, Q8TF72 = biological target: T12, SHROOM3, Q8TF72
T12 sequence (Q8TF72 20-120, limits assumed, looked up): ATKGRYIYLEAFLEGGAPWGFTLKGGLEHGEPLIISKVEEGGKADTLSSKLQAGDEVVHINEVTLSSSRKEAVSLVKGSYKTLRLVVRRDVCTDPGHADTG

MAGI1_6, Q96QZ7 = biological target: MAGI1_6, Q96QZ7
SHANK3, Q9BYB0 = biological target: T13, SHANK3, Q9BYB0
T13 sequence (Q9BYB0 641-750, limits assumed, looked up): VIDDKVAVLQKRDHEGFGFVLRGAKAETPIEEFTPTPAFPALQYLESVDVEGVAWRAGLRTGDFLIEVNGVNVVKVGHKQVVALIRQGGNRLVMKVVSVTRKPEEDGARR

CNKSR1, Q969H4 = biological target: T14, CNKSR1, Q969H4
T14 sequence (Q969H4 191-295, limits assumed, looked up): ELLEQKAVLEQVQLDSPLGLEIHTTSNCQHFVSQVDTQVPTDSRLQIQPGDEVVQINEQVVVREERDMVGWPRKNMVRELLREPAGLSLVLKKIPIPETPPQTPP

PDZD7_1, Q9H5P4 = biological target: T15, PDZD7_1, Q9H5P4
T15 sequence (Q9H5P4 81-178, limits assumed, looked up): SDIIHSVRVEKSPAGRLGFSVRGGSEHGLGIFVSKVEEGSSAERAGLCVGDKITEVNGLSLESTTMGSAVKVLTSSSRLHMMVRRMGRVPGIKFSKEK

DLG5_2, Q8TDM6 = biological target: DLG5_2, Q8TDM6
DLG5_2, Q8TDM6, sequence (Q8TDM6 714-800): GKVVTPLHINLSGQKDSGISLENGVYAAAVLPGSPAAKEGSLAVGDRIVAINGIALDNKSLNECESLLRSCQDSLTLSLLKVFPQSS

MAST3, O60307, sequence (O60307 945-1048): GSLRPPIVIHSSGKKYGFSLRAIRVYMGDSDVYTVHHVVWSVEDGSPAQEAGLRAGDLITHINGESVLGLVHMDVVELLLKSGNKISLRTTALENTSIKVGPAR
MAGI1_6, Q96QZ7, sequence (Q96QZ7 1146-1238): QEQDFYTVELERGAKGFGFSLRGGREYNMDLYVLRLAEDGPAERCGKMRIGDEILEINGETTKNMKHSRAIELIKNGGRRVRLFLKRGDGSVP
MAGI1_3, Q96QZ7, sequence (Q96QZ7 638-725): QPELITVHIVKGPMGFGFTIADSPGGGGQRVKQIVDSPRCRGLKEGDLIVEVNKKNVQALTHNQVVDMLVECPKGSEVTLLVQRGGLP
PREX1_1, Q8TCU6, sequence (Q8TCU6 608-718): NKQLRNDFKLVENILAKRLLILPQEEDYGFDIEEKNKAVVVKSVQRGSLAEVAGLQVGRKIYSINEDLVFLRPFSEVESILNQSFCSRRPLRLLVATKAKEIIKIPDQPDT
MAGI3_5, Q5TCQ9, sequence (Q5TCQ9 847-941): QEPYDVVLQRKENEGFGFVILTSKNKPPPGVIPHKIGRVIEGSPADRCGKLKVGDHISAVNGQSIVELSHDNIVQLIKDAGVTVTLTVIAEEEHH
IL16_2, Q14005, sequence (Q14005 350-450): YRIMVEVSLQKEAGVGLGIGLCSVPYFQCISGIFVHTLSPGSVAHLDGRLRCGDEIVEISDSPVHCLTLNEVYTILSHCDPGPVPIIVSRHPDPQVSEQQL

- pKd (PDLIM3, Q53GG5): below the threshold
- pKd (MAGI1_3, Q96QZ7): below the threshold
- pKd (TJP3_1, O95049): below the threshold
- pKd (PDZRN3_2, Q9UPQ7): below the threshold
- pKd (APBA3_2, O96018): below the threshold
- pKd (MAST3, O60307): below the threshold
- pKd (MAGI3_5, Q5TCQ9): below the threshold
- pKd (PDZD4, Q76G19): below the threshold
- pKd (PARD6B, Q9BYG5): below the threshold
- pKd (PTPN4, P29074): 3.83
- pKd (NHERF1_1, O14745): below the threshold
- pKd (IL16_2, Q14005): below the threshold
- pKd (MPP1, Q00013): 4.01
- pKd (INTU, Q9ULD6): below the threshold
- pKd (PTPN13_4, Q12923): below the threshold
- pKd (PREX1_1, Q8TCU6): below the threshold
- pKd (SHROOM3, Q8TF72): below the threshold
- pKd (MAGI1_6, Q96QZ7): below the threshold
- pKd (SHANK3, Q9BYB0): below the threshold
- pKd (CNKSR1, Q969H4): below the threshold
- pKd (PDZD7_1, Q9H5P4): below the threshold
- pKd (DLG5_2, Q8TDM6): 4.26
Binder: PSRDRKETSI [RALBP1, Q15311]
